Laboratory results from patent US20050124794A1, “Cell surface tropomyosin as a target of angiogenesis inhibition” (priority 2002, published 2005).

Columns and labels:
[1] = target: Tropomyosin (Tpm) exposed on the surface of proliferating human umbilical vein endothelial cells (human); experiment: biotin-HKa on unfixed subconfluent HUVEC in 96-well plates, 4 °C, with and without 10 µM Zn2+, streptavidin-peroxidase; nonlinear regression
[2] = target: Chicken gizzard tropomyosin (Tpm), purified (chicken); experiment: plate assays on immobilized chicken gizzard Tpm (FIGS. 14 and 15)
Chicken gizzard tropomyosin (Tpm), purified (chicken), sequence (chain, as listed by the source limits assumed): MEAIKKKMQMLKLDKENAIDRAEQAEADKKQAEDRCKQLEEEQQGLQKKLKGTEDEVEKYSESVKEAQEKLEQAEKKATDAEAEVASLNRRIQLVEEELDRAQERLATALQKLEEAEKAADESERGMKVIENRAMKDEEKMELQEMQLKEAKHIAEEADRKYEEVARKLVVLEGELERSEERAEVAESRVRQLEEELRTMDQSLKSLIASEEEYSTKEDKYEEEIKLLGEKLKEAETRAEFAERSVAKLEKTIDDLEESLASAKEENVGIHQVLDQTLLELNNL

[3] = target: Chicken gizzard tropomyosin (Tpm), purified (chicken); experiment: competition with 10 nM biotin-HKa on plate coated with chicken gizzard Tpm, 10 µM ZnCl2
[4] = target: Chicken gizzard tropomyosin (Tpm), purified (chicken); experiment: competition ELISA against 10 nM biotin-HKa on immobilized chicken gizzard Tpm, 10 uM ZnCl2; Kd by non-linear regression

Endostatin (ligand), sequence (P39060 1572-1754): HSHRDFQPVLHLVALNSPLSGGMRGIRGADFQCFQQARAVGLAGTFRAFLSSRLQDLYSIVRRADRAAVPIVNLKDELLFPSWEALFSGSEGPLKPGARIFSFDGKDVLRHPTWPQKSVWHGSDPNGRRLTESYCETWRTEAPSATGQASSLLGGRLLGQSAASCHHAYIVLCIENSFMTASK

| Substance | Kd [1] [µM] | fold lower affinity than HKa or HKa-D5 [2] [fold] | Kd [3] [µM] | Kd [4] [µM] |
| --- | --- | --- | --- | --- |
| Two-chain high molecular weight kininogen (HKa) (from UniProt P01042 19-380; P01042 390-644) (ligand) | 0.0025 |  |  |  |
| Endostatin (ligand) |  | 1000 | 2 | 1.97 |
